± gives the uncertainty stated by the source.

This series is described as follows: amyloid nucleation score (Sup35N fusion, yeast selection) (log enrichment); library NNK3; higher = more nucleation; inactive = no reads after selection. The method in brief:
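The nucleation score, computed with DiMSum, is the log enrichment of output over input reads, centred on the mode score of non-aggregating sequences. Sequences with under 100 input reads were dropped. Reads were generated by Illumina sequencing of plasmid inserts from psi-negative yeast with Sup35N fused to peptides of 20 random codons, induced with 100 μM copper sulfate for 24 hours and grown 7 days at 30°C on medium lacking adenine and uracil.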
As for SISPFN, the amyloid nucleation score result is “inactive”.
In the case of SISVNVCRWTRCLGTQLLSV, the amyloid nucleation score result was “inactive”.
Next, SITQSRLTP: -0.196 ± 0.36.
With SITTEVFDSQVNKLRELDGW, the amyloid nucleation score entry was “inactive”.
As for SIVQLNYTELAVKWSLVS, the amyloid nucleation score entry is “inactive”.
As to SIWSALSDLLLSKREE, the amyloid nucleation score result is “inactive”.
Next, SKAVSLCGLRLMFFPLYPGS: “inactive”; SKCDMCTYTQRFNDL: “inactive”.
As to SKESISLECIHRVWFCGTGL, the amyloid nucleation score is 0.185 ± 0.38.
Turning to SKFSCIRSYYG, the amyloid nucleation score entry was “inactive”.
Next, SKGGADNNWLVIDCPLNRRM: “inactive”; SKGICNFMCVL: 3.37 ± 0.077; SKHYN: “inactive”.
Next, SKKSDF: “inactive”.
For the substance SKLCVVTFLCIQTCQYDLCV, the amyloid nucleation score entry is “inactive”.
As to SKLGYRRVSKCIGTDFN, the amyloid nucleation score entry was “inactive”.
On to SKNDIQARGSRKKCSNKGAK, for which the amyloid nucleation score entry was “inactive”.
Next, SKPACRRFTLNDQKRKVEWI: “inactive”.
Next, SKPNMAELKLHFTGYPHPAK: “inactive”.
Next, SKRVIVWVTSLYWDV: “inactive”.
Turning to SKSYVEF, the amyloid nucleation score entry is “inactive”.
SKVGSWYDAT came in with an amyloid nucleation score of -0.506 ± 1.1.
For SLAINSYVCMYIHFQTTMRD, the amyloid nucleation score entry is “inactive”.
SLETMFMEKKRTSPNMVMLW gave an amyloid nucleation score of -0.42 ± 0.73.
As for SLGFGIDSSYGLLTGYKFFT, the amyloid nucleation score was 0.264 ± 0.21.
Next, SLGISKSG: “inactive”; SLIFFL: 1.35 ± 0.12.
Next, SLLFFRWDIWTVASGYD: “inactive”; SLLKINGGVIHYFSCRMEDW: 0.684 ± 0.34; SLLLTSWESVYIMRGLDRTI: 0.086 ± 0.42.
In the case of SLMLLRRTAVRPHWWKLRPN, the amyloid nucleation score entry is “inactive”.
Next, SLMNPNFFLHMVIRTNCYLK: “inactive”; SLNNSMVWKYH: “inactive”; SLPCSKCAVKLFL: “inactive”.
SLPRV: the amyloid nucleation score result was “inactive”.
On to SLRVLWCIRLKCSCLCWISG, for which the amyloid nucleation score result is “inactive”.
On to SLSATCLCTVMSTNFIFYVF, for which the amyloid nucleation score was 0.509 ± 0.41.
With SLSIASVWWDPGTHVFLALW, the amyloid nucleation score entry was “inactive”.
SLSSRGLYLSKDLMPILNYR: the amyloid nucleation score result is “inactive”.
Next, SLTFTLCRVHGGRESRVSLG: 0.319 ± 0.81; SLVAYLIEGIFNLWEALMDR: “inactive”.
In the case of SLVLNSMMRTTNKNGNEGYV, the amyloid nucleation score result is “inactive”.
Regarding SLVSYRLWIYDLWMTWL, the amyloid nucleation score result was “inactive”.
Next, SMACCGLSIAATNAPKVPKV: 0.498 ± 0.34; SMATDAWGTTKF: “inactive”.
Take SMATNCTDR: the amyloid nucleation score result is “inactive”.
In the case of SMFTAIASTTFNLQSLYLM, the amyloid nucleation score entry was “inactive”.
As to SMGSPVNVIWTSSYS, the amyloid nucleation score result is “inactive”.
In the case of SMHYAQYIIIYWRMSSRVYD, the amyloid nucleation score result is “inactive”.
Next, SMLAPCHELEHMGRCGECSN: “inactive”; SMLSAIMGSS: “inactive”.
Next, SMLSMLTLRSLSLTFMKRNQ: 0.626 ± 0.32.
Next, SMQVQMTWLCDRSSLGQRNQ: 1.6 ± 0.11.
Turning to SMRQSFQWCYHSAECYVHSG, the amyloid nucleation score was determined as 0.337 ± 0.31.
Next, SNASQLY: “inactive”; SNCRCIEGVFYHTYNQKAVR: “inactive”.
Next, SNFAMGVRLY: “inactive”.
Consider SNFVVSNPISSRGTMNIRII, for which the amyloid nucleation score result was “inactive”.
With SNHSRYYRNHDVFWYNIEVG, the amyloid nucleation score entry is “inactive”.
As for SNLFTGYGELFVPGS, the amyloid nucleation score entry is “inactive”.
Turning to SNQLNAN, the amyloid nucleation score result is “inactive”.
SNRIYHVVFID returned an amyloid nucleation score of 1.89 ± 0.1.
Next, SNRKPWARHIVDRACM: -0.922 ± 1.9; SNRYVCLAYYFSE: 0.154 ± 0.49.
In the case of SNTHLYCLMFRLPCRILDRK, the amyloid nucleation score result was “inactive”.
For the substance SNVNTAWKRFTRI, the amyloid nucleation score entry is “inactive”.
Next, SNVPYKDLQTLWCSHPVSVV: “inactive”.
Next, SNVTRMVRFFWVEGPTEYWY: “inactive”; SNYGTYRRNSPHSCLRTFWR: “inactive”; SPAQDQLAVRWVGVDRMMWW: -0.434 ± 0.86.
Next, SPDDVDYFFLVRNDRMCAYV: “inactive”.
Turning to SPDGIGTMRGNFLGTPWRCR, the amyloid nucleation score result was “inactive”.
Next, SPFVCHEPLLRVVWSSTCSF: “inactive”.
Next, SPGYINGNGSSVRSVFNL: “inactive”; SPLTARMADRRDTA: -0.134 ± 1.4.
Next, SPLYGYGDKRQVRYLLTGSC: “inactive”.
Turning to SPTLPGCLVLEIINDNI, the amyloid nucleation score entry was “inactive”.
Next, SPWYVVFMCNLIFYKGEFTR: “inactive”; SQDGYDLHRSFRLLEVGSEL: “inactive”; SQITRMTPPVSIAADSRFVE: “inactive”.
As to SQKFGALVFI, the amyloid nucleation score result was “inactive”.
On to SQLRMFRVARVLIAEVNAP, for which the amyloid nucleation score result was “inactive”.
Next, SQNAQESIPMRKFITPSRVF: “inactive”; SQTIYGI: “inactive”; SQVDIMGKPADAFVPWFDGS: “inactive”.
Take SRAAPRFRSIP: the amyloid nucleation score result is “inactive”.
Next, SRCPRMGYQHALRRWLLPVW: “inactive”; SRGVRIDKMVWNVIGFCHGW: 2.8 ± 0.08.
Next, SRILRYVTLSEYWFQPIGLD: “inactive”; SRKLCSHR: -0.557 ± 0.66.
Next, SRKVRGYLLMTNFVCLSNYV: “inactive”.
SRLCARMSSGKTIGYCNLFL: the amyloid nucleation score entry is “inactive”.
For the substance SRLEGIAGVKKGVMVNQKRL, the amyloid nucleation score result is “inactive”.
Take SRLNFVLVSMQD: the amyloid nucleation score entry was “inactive”.
Next, SRLWYSPGDYQVFKVRLHIW: “inactive”; SRNILRLKLIRLCSRKGIWW: “inactive”.
Next, SRQARCKPCVSCWDRCMWMI: “inactive”.
